Data on 17 sequences can be found in a protein production outcome set (Wang et al. 2014).
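Further: failed if final PepcDB status was selected cloned or expressed and not failed if soluble or beyond.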

The series in a line: label from the status in PepcDB records.
For the sequence “MEALDWLVIGVFFLALIGIIVWVVRQKQNDSADYFLGGRDATWLAIGASIFASNIGSEHLIGLAGAGASSGMAMAHWEIQGWMILILGWVFVPFYSRSMVYTMPEFLERRYNPQSRTILSVISLVSYVLTKVAVTVYAGGLVFQQVFGIKELWGIDFFWIAAIGLVVLTALYTIFGGMKSVLYTSVLQTPILLLGSLIILVLGFKELGGWDEMMRVCGAVTVNDYGDTMTNLIRSNDDANFPWLGALIGSAIIGFWYWCTDQFIVQRVLSGKNEKEARRGTIFGAYLKLLPVFLFLIPGMIAFALHQKYIGAGGEGFLPMLANGTANADAAFPTLVAKLLPAGVKGLVVCGILAALMSSLASLFNSSAMLFTIDFYKRFRPETPEKKLVGIGQIATVVIVILGILWIPIMRSVGDVLYTYLQDVQSVLAPGIAAAFLLGICWKRTSAQGGMWGLIAGMIIGLTRLGAKVYYSNAGEVADSTFKYLFYDMNWLFFCGWMFLFCIIVVIVVSLATEAPTAEKIQGLVFGTATKEQKAATRASWDHWDIIHTVIILAITGAFYWYFW”, the protein production entry was “failed”.
With “MEASRNRSLVGNNRSPEMNENDGEDVAASAAVEDVEVWDTLSNGFKRAQLYLDQNRDLIQRVNENHMSRIPDNVSRNVGLINEINGNISQVMEIYSDLSLNFAKKFDQRRRTTKDGDTTTTTTGS”, the protein production result was “failed”.
On to “MECDRISTLPDHLVAKIVSYLGIKDSIKTSVLSKRWEFVWLKVVGLDLKNCDFPPNGIASQMVVNKYMEFNSGLHMQYFKVNFGGNTVCTNRFLEWIATAVDRGVQHLDAENKNPVIIKEFMPKKIYKSKTLVSLKLAIKIFLKARHFISVFIVLQGQSIVQFSSRCGTFS”, for which the protein production entry was “not failed”.
Next, “MECKTMERITVNLGERSYPISIGAGLFANPALLSLSAKQKVVIVTNHTVAPLYAPAIISLLDHIGCQHALLELPDGEQYKTLETFNTVMSFLLEHNYSRDVVVIALGGGVIGDLVGFAAACYQRGVDFIQIPTTLLSQVDSSVGGKTAVNHPLGKNMIGAFYQPKAVVIDTDCLTTLPAREFAAGMAEVIKYGIIYDSAFFDWLEAQMEALYALDEQALTYAIARCCQIKAEVVAQDEKESGIRALLNLGHTFGHAIEAHMGYGNWLHGEAVSAGTVMAAKTAQLQGLIDASQFERILAILKKAHLPVRTPENMTFADFMQHMMRDKKVLAGELRLVLPTSIGTSAVVKGVPEAVIAQAIEYCRTV”: “not failed”; “MECPFVSVVVGIRNEERYIEECIESLLRLDYPQDSYEIIIVDGMSTDRTRELVQKYPVRLLLNERKNVAAARNLGVQNSMGDFVAFTDGDCKADPLWLKTLVTEMKNAPEDVVCVGGPNLIFDTDPVFGRVVGHAQETFLGSGGSAQSKNSLKKHYVSSLPNCNAMYKKNTIIEAGYFDERFVVGQDGDLNYRINKKGYKFLYIPEAIVLHHRRGTLKSFSVRMFKYGMWMGELFKKHGELVRWYAILPSVAILFSVFSLIISPVYTTPIIVLLLMGFLYLILVFIASIQVIFKMKSKYGLYALVVIPVQHITYGMGFLYSFANSLYKSKGVSSSIVQN”: “failed”; “MEDGMNTFDLYYWPVPFRGQLIRGILAHCGCSWDEHDVDAIEGLMDCGAEKQPVAFMGPPVLIDRERNFAISQMPAIAIYLGERLDILPATVEGRTLSAKIVNDANDVLDELTLNGGREMWTPEKWQEFVPRLQKWIRIFADTGARNGLSAASGFMLGTEKIGVADIVTAILWTTVADRFPAIKGIIEDTSPIIWGLSRRVVATAPLAALNSKSFEEYGNAYCGGEIEKSLRKVAS”: “not failed”.
For “MEDIEYLDEYKDLVLPGIKSSAPTASSAGVPRQRRISSDSSNSSSIDADIFQKLFHGKYLDDELLKEGSGSKSQDRRRRPPSPSSSDESNDALEALFCGK”, the protein production entry is given as “failed”.
For “MEDIIFGKRSNVFDVNPENTVFVLIAGTSEVSTVPGITSAGATPELTRLTPAIDSEIIGEGKCLSSKDPPMTPEGIPTPAIVTKAILSLTNIRYIIVNGGFYAKPKTPFIETGLKPSNNPAVKTAIEDLDAAIHAGEHIGRLLDGVFENIILAESVPGGTTTAYAVLKAIGINAKTSSSMKEDPFSIKEKIAEMSFRRKLEKSPLGAVKEYGDNMMAVSLGISSSVKRSKIIFGGGTQMATVMYLDRLINGMRDRYISTTGWVYYHRTELFSDLGLSDYLAVSAMDFSGMKHPGLRYYQYGHVREGTGMGAAFLLARLMNFEAEAIYKSVDDFYEQFI”, the protein production result was “failed”.
For the sequence “MEDLTASVTNRTVSLPLSCVTTDFGLGVIYASKNQESKTTREKPMLVTLNSSLEHTYQKDFKSLREILSRKVAWQTEAVNAISQIICGCKTDSTRRNQASGIWLALLGPDKVGKKKVAMTLSEVFFGGKVNYICVDFGAEHCSLDDKFRGKTVVDYVTGELSRKPHSVVLLENVEKAEFPDQMRLSEAVSTGKIRDLHGRVISMKNVIVVVTSGIAKDNATDHVIKPVKFPEEQVLSARSWKLQIKLGDATKFGVNKRKYELETAQRAVKVQRSYLDLNLPVNETEFSPDHEAEDRDAWFDEFIEKVDGKVTFKPVDFDELAKNIQEKIGSHFERCFGSETHLELDKEVILQILAASWSSLSSGEEEGRTIVDQWMQTVLARSFAEAKQKYGSNPMLGVKLVASSSGLASGVELPAKVDVIW”, the protein production result is listed as “failed”.
As to “MEEELPLFSGDSGKPVQATLSSLKMLDVGKWPIFSLCSEEELQLIRQACVFGSAGNEVLYTTVNDEIFVLGTNCCGCLGLGDVQSTIEPRRLDSLNGKKIACLSYGSGPHIVLATTEGEVFTWGHNAYSQLGNGTTNHGLVPCHISTNLSNKQVIEVACGSYHSLVLTSDGEVFAWGYNNSGQVGSGSTVNQPIPRRVTGCLQNKVVVTIACGQMCCMAVVDTGEVYVWGYNGNGQLGLGNSGNQPTPCRVAALQGIRVQRVACGYAHTLVLTDEGQVYAWGANSYGQLGTGNKSNQSYPTPVTVEKDRIIEIAACHSTHTSAAKTQGGHVYMWGQCRGQSVILPHLTHFSCTDDVFACFATPAVTWRLLSVEPDDHLTVAESLKREFDNPDTADLKFLVDGKYIYAHKVLLKIRCEHFRSSLEDNEDDIVEMSEFSYPVYRAFLEYLYTDSISLSPEEAVGLLDLATFYRENRLKKLCQQTIKQGICEENAIALLSAAVKYDAQDLEEFCFRFCINHLTVVTQTSGFAEMDHDLLKNFISKASRVGAFKN”, the protein production entry is “failed”.
Turning to “MEEHGHHEMEGTPLGCHSHIKLLKINREHLVTNIRNTQCLVDNLLENGYFSAEDAEIVCACPTKPDKVRKILDLVQSKGEEVSEFFLYVLQQLEDAYVDLRLWLSEIGFSPSQLIRTKTIVNTDPVSRYTQQLRHQLGRDSKFMLCYAQKEDLLLEETYMDTLMELVGFNNENLGSLGGLDCLLDHSTGVLNEHGETVFVFGDAGVGKSMLLQRLQSLWASGRLTSTAKFFFHFRCRMFSCFKESDMLSLQDLLFKHFCYPEQDPEEVFSFLLRFPHTALFTFDGLDELHSDFDLSRVPDSCCPWEPAHPLVLLANLLSGRLLKGAGKLLTARTGVEVPRQLLRKKVLLRGFSPSHLRAYARRMFPERTAQEHLLQQLDANPNLCSLCGVPLFCWIIFRCFQHFQTVFEGSSSQLPDCAVTLTDVFLLVTEVHLNRPQPSSLVQRNTRSPAETLRAGWRTLHALGEVAHRGTDKSLFVFGQEEVQASKLQEGDLQLGFLRALPDVGPEQGQSYEFFHLTLQAFFTAFFLVADDKVSTRELLRFFREWTSPGEATSSSCHSSFFSFQCLGGRSRLGPDPFRNKDHFQFTNLFLCGLLAKARQKLLRQLVPKAILRRKRKALWAHLFASLRSYLKSLPRVQSGGFNQVHAMPTFLWMLRCIYETQSQKVGRLAARGISADYLKLAFCNACSADCSALSFVLHHFHRQLALDLDNNNLNDYGVQELQPCFSRLTVIRLSVNQITDTGVKVLCEELTKYKIVTFLGLYNNQITDIGARYVAQILDECRGLKHLKLGKNRITSEGGKCVALAVKNSTSIVDVGMWGNQIGDEGAKAFAEALKDHPSLTTLSLAFNGISPEGGKSLAQALKQNTTLTVIWLTKNELNDESAECFAEMLRVNQTLRHLWLIQNRITAKGTAQLARALQKNTAITEICLNGNLIKPEEAKVFENEKRIICF”, the protein production result is given as “failed”.
Turning to “MEEKAKMRRLSTWKLKLRMFLATVLLFGLIYAILMVVGSILGLGGPLFYALLGFGVIFLQYLISPKIVELTMNVHYVSEAEAPRLHAMVDELARRAGIPKPMVGIAEIALPNAFAFGRTKADGRVCVTRGILNLLDEEELRAVLGHEISHIKHSDMIVMTLVSAVPLICYYIFWSTVFSRDDEANLVGIAALIAYFIGQLIVLFISRTREYYADQGSVEIGGQPHKLASALYKLVLRLSPVQQGRPETGRGCQGLLPE”, the protein production entry is “failed”.
For the sequence “MEEKNIHMQPNINYSYRNPNMYNMNYHNPIVPPPQQQMQLFVNDWKSILSPMQTCKIKQQFDDREFVADYFMGFKLDFNNKYLILDASTELMKFTACEKSEFCYRNCLPKICIPMNMKILSYGKEISKPDILMEKDCTCTFLCFNRPTIKMYDFSNNNNKELIGTIKTPYRCCSYNFNLFDPSNNKIMYMDDTCCQMSILCPCPWGPFKYSNFFLRDANSKEKIAHLRKEVPFLKFVKRDIDNYTLDFEQVQNPEWKMMLLAFALFLDYMYYDRK”, the protein production result is reported as “failed”.
For the sequence “MEELLREYLPILVFLAVAAGLGLVLILAAVVLAVRNPDPEKVSAYECGFNAFDDARMKFDVRFYLVSILFIIFDLEIAFLFPWAVGFKDMSDVGFWSMMVFLGVLTIGFAYEWKKGALEWQ”, the protein production result was “failed”.
On to “MEEMFETSLKVIEQSGWLAPVLFIMLHVFRQVFFIPVIIICLVGGYLFGSFYGSLYSIIGLTATSALFYGIVHGFPRFLAKVSQLKKRFLGEKESLSLPQMMLLRIVPFIHFHLVSLYVMETRPTFREYMKISFYLSMPPAIIYTLFGDMIHELPLVGTVVFALFIGLLCFMARRKEQRYAWQEFFKA”, for which the protein production result is “failed”.
Next, “MEEMNVFLTMIYRELKRFIRSPSRIIGSILNPLLWLIFFGKGWSGVFNFPMATRIFGGVDYMTYLVPGVVVMTVFDMSFLQGLTIIWDKQFGFMKEILVAPASRVESILGRITGGAIVAMIQGFIMVALSFIVANLKVSGVIPTLILAFFVGVAIAGLGVAVALKMSSMEGFQIIVMMLMLPMMFLSGAFYPVRTMPNWMQWLAKINPLTYAVDGARYYLAGVTPTFGIMQDWIVLILLALVFAGFAGLEFRKAYLS”: “failed”.
For “MEENTAVAAAERRSGCGLLSVMFGRRGLWSKKSTAVDNGSQKSTSTAATATSNIQFTKSPGTELKKPRDDQKVSAEPIQNNKIQNNQNHNQRSVVPSKPSSNQYPNNHQLGTYENHQRSSYNNNSNSVDPYRGGGGQRKVPREAIGLSGELESMITDHQKAKGTNGLVRASSSNIMLYGNLGNLNQTGPVTAGVNYGNNNGYGVKRTTMGAATATTTKSQDQSGSLCRAISTRMDPETLKIMGNEDYKNGNFAEALALYDAAIAIDPNKAAYRSNKSAALTALGRILDAVFECREAIRIEPHYHRAHHRLGNLYLRLGEVEKSIYHFKHSGPEADREDIAKAKTVQTHLNKCTEAKRLRDWNGLITETTNTISSGADAAPQVYALQAEALLKTHRHQEADDALSRCPVFDIDASTRYYGPVGYAGFLVVRAQVHLASGRFDEAVEAIQRAGKLDGNNREVIMISRRAQAVTEARFKGNELFKSGRFQEACAAYGEGLDHDPRNSVLLCNRAACRSKLGQFDKSIEDCTAALSVRPGYGKARLRRADCNAKIEKWELAVGDYEILKKESPEDEQVIRGLSEAQQQLMKRSGQDS”, the protein production entry is on record as “failed”.
